Biological target: OX40 (receptor of OX40L) on tumor-infiltrating T cells of C57BL/6J mice (mouse) (UniProt P47741)
Assay: cell-based or functional assay

Sequence of UniProt P47741 (P47741 20-272): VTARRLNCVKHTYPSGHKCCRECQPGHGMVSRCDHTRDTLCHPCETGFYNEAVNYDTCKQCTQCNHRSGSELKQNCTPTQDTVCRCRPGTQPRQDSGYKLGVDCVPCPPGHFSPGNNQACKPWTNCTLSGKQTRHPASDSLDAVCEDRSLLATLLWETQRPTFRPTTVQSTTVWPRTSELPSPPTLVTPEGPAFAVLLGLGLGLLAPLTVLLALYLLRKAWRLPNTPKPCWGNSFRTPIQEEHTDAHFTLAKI

murine OX40L (muOX40L) polypeptide (ligand)
percentages of OX40+FoxP3+CD4+ cells in injected tumors of WT mice (FACS): 19%

— US20250179524A1
